Reference: the supplement of paper PMC6379048

Assays:
Assay in all cases: Kd (EC50 corrected by depletion factor)
XRN2 = target: T1, XRN2 (UniProt Q9H0D6)
T1 sequence: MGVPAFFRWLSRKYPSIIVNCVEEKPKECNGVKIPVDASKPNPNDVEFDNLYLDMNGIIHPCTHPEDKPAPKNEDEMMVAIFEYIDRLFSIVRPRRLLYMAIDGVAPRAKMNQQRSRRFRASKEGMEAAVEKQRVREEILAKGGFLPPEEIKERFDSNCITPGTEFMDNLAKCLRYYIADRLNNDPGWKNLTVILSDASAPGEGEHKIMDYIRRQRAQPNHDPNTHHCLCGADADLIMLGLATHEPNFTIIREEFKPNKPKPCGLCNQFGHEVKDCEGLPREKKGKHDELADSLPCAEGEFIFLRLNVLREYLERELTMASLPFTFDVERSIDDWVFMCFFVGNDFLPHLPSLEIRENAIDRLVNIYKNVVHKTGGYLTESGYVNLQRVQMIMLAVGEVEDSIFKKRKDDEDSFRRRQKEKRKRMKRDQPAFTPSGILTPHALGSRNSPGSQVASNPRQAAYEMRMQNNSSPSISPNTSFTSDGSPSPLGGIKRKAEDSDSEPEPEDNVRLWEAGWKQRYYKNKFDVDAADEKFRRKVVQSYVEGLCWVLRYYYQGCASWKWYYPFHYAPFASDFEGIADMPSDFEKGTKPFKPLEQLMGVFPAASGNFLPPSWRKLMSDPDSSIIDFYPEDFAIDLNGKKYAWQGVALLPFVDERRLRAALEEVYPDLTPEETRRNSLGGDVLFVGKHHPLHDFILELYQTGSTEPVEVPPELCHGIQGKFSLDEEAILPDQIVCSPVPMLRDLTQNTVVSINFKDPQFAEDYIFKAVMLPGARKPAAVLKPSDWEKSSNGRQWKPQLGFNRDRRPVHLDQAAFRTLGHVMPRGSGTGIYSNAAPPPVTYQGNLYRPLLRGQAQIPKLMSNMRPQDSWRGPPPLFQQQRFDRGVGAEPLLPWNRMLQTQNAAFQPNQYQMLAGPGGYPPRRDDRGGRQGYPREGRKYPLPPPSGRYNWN
Method: (§1)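 Competition-binding assay: HEK293-FT cell lysate (2.5 mg protein) pre-incubated 1 h at 4°C with free motif-containing RNA oligos (0 to 30 µM, 12 doses), then pulled down with the same 5'-amino-C6 RNA oligos immobilised on NHS-Sepharose beads (30 min, 4°C). Bound proteins were quantified by label-free LC-MS/MS and normalised to the water control. EC50 came from a four-parameter log-logistic fit; Kd = EC50 x depletion factor. Random/reversed control probes are dropped.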

HNRNPUL1 = target: T2, HNRNPUL1 (UniProt Q9BUJ2)
T2 sequence: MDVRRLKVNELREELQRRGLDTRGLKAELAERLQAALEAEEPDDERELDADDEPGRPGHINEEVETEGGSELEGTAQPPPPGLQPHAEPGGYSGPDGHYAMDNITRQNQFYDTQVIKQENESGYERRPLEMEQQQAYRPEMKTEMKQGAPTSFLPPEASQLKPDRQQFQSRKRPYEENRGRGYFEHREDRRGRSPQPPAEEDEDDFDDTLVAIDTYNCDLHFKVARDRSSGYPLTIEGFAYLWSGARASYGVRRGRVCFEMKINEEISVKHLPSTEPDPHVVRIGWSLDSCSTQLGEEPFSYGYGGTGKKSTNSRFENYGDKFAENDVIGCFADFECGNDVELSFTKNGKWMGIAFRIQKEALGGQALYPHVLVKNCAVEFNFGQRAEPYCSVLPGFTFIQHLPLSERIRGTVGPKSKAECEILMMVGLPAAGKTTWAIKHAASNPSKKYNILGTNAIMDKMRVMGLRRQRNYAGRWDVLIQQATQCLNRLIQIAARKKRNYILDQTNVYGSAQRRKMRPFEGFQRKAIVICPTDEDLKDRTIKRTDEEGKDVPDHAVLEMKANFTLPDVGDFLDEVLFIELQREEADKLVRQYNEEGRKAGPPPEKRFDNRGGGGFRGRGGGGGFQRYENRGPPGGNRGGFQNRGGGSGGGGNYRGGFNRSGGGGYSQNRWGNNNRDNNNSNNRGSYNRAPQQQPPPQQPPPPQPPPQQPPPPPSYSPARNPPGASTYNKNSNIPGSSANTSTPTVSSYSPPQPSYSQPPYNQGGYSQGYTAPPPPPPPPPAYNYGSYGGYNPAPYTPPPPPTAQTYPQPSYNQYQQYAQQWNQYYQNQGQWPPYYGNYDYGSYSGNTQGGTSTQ
Method: as §1

DIS3L2 = target: T3, DIS3L2 (UniProt Q8IYB7)
T3 sequence: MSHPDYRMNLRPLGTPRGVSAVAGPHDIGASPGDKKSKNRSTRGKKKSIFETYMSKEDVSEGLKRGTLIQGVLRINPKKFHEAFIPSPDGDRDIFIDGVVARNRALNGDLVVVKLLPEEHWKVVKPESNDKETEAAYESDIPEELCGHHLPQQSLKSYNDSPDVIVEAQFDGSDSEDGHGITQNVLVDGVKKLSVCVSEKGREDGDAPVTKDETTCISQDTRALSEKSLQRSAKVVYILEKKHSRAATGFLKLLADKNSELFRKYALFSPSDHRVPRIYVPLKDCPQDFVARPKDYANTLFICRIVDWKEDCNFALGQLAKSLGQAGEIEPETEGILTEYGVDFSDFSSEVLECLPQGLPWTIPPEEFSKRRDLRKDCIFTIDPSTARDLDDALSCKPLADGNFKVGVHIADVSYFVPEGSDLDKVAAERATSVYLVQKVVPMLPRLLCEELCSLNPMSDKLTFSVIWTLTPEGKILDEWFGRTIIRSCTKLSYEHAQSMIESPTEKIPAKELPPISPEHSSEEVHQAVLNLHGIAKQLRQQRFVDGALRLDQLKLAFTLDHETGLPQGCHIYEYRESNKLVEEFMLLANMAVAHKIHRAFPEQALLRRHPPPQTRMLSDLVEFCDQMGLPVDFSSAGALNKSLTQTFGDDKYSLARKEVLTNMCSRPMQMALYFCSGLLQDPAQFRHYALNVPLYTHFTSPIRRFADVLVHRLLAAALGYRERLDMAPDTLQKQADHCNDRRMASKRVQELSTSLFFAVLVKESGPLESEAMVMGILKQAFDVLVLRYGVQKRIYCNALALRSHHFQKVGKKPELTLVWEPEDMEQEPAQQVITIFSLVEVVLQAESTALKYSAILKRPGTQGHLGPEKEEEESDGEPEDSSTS
Method: as §1

Sequence | Kd (XRN2) | Kd (HNRNPUL1) | Kd (DIS3L2)
AAUAAA | 354 nM | 308 nM | 383 nM
CUGUCCU | 80.8 nM | 35.7 nM | 774 nM
UAUUUAU | 184 nM | 427 nM | 290 nM
